Experimental data from patent US8492329B2, “Bioactive peptides and methods of using same” (Compugen Ltd., priority 2007, dated 2013).
No end group written: not given here.

Legend:
LGR8 (RXFP2) [1] = target: T1, LGR8 (RXFP2) (Homo sapiens, UniProt Q8WXD0); experiment: pCRE-β-gal reporter assay in HEK-293T cells expressing LGR8; type: cell-based; parameters: expressed in transfected cells; conditions: LGR8/pCRE-β-gal HEK-293T; for CRE activation pattern: 0.01 nM-1 μM, FIG. 6A-B
Procedure: In order to further test the activity of P59C13V (P59) (SEQ ID NO: 6), P59S-Amide (P59S) (SEQ ID NO: 1), P59C13V-Amide (P59 Amide) (SEQ ID NO: 5) and P74C13V (P74) (SEQ ID NO: 10), the following assay was performed. The assay was done to assess the ability of P59C13V (P59) (SEQ ID NO: 6), P59S-Amide (P59S) (SEQ ID NO: 1), P59C13V-Amide (P59Amide) (SEQ ID NO: 5) and P74C13V (P74) (SEQ ID NO: 10) peptides to replace H2 Relaxin or INSL3 activity in stable HEK-293T cell lines expressing the LGR7 (RXFP1) or the LGR8 (RXFP2) receptors, respectively, by assessment of the ability of these peptides to increase cAMP activity in cell lines expressing LGR7 (RXFP1) or LGR8 (RXFP2) respectively, together with pCRE-β-gal. The pCRE-β-gal assay is a standard and well established assay at the Howard Florey Institute (Melbourne, Australia) (Halls M L, Bathgate R A, Summers R J.—Comparison of signaling pathways activated by the relaxin family peptide receptors, RXFP1 and RXFP2, using reporter genes. J Pharmacol Exp Ther. 2007 January; 320(1):281-90.)
The ability of P59C13V (P59) (SEQ ID NO: 6), P59S-Amide (P59S) (SEQ ID NO: 1), P59C13V-Amide (P59Amide) (SEQ ID NO: 5) and P74C13V (P74) (SEQ ID NO: 10) to influence cAMP activity in HEK-293T LGR7/pCRE-β-gal stable or LGR8/pCRE-β-gal transfected cells was tested in parallel to H2 relaxin and INSL3 respectively, according to the protocol described in Halls M L, et al., J Pharmacol Exp Ther. 2007 January; 320(1):281-90.
The experiment was repeated at least three times. The following concentrations of each peptide were tested: 0.01 nM, 0.1 nM, 1 nM, 10 nM, 100 nM, 1 μM.
The results are presented as a percentage of INSL3 activity in LGR8/pCRE-β-gal transfected HEK-293T cells as a function of the concentration (Represented in Log [M]).

LGR8 (RXFP2) [2] = target: T1, LGR8 (RXFP2); experiment: Competition with Europium labelled INSL3 binding to HEK-293T cells expressing LGR8; parameters: expressed in transfected cells; conditions: LGR8 HEK-293T, FIG. 10; for effect on binding of Europium-INSL3: 0.01 nM-10 μM
Procedure: The ability of Peptides P74C13V (SEQ ID NO: 10) and P59C13V (SEQ ID NO: 6) to compete with the binding of known ligands to LGR7 or LGR8 was tested by testing the ability of P74C13V (SEQ ID NO: 10) and P59C13V (SEQ ID NO: 6) to compete with the binding of Europium labelled H2 Relaxin or INSL3 (manufactured by the H. Florey institute) to stable HEK-293T cell lines expressing LGR7 or LGR8 respectively.
HEK-293T cell lines expressing LGR8 (RXFP2) were treated with Europium labeled INSL3 (manufactured by the H. Florey institute). The cells were then treated with decimal increasing concentrations (0.01 nM, 0.1 nM, 1 nM, 10 nM, 100 nM, 1 μM, 10 μM) of un-labeled INSL3 (as a positive control) and the tested peptides P59C13V (P59) (SEQ ID NO: 6), P59C13V-Amide (P59-Amide) (SEQ ID NO: 5), P59-S-Amide (P59S) (SEQ ID NO: 1) and P74C13V (P74) (SEQ ID NO: 10). The binding results are shown as a percentage of specific binding of the radioactive test INSL3 (where 100% is the baseline radiation level). […] This means that the binding affinity of the Eur-INSL3 was increased by binding/activity of the P59C13V (P59) (SEQ ID NO: 6) peptide on the LGR8 receptor.

T1 sequence (Q8WXD0 whole entry): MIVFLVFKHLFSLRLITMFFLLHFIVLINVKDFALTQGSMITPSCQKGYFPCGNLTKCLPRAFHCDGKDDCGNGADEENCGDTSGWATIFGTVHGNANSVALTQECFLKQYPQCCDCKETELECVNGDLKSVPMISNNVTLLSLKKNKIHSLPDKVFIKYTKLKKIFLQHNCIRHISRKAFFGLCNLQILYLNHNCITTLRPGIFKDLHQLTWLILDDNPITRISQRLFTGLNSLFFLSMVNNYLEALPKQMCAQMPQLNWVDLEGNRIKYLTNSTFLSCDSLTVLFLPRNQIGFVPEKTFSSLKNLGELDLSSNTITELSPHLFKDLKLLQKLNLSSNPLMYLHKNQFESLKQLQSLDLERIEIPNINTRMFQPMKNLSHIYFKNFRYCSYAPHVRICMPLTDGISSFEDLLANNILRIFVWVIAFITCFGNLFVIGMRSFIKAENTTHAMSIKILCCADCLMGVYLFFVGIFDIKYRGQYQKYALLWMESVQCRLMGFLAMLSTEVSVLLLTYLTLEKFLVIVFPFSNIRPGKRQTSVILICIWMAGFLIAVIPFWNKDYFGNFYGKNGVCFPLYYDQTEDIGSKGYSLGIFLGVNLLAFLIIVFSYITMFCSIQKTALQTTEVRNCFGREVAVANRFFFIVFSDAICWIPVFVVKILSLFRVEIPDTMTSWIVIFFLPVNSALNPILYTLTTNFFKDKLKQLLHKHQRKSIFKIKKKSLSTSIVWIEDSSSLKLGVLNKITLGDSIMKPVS

Substance	CRE activation pattern (LGR8 (RXFP2) [1])	effect on binding of Europium-INSL3 (LGR8 (RXFP2) [2])	CRE activation relative to INSL3 activity (LGR8 (RXFP2) [1]; FIG. 6B)	specific binding of Europium-INSL3 (LGR8 (RXFP2) [2]; at 1 nM and higher concentrations, 100% is baseline) [%]
GQKGQVGPPGAAVRRAYAAFSV-Amide (GQKGQVGPPGAAVRRAYAAFSV-NH2) [P59C13V-Amide]	very weak effect	less apparent		
GQKGQVGPPGAAVRRAYAAFSV [Peptide P59C13V]		positive cooperative or allosteric effect	~25 % of INSL3	~125
AYAAFSV-Amide (AYAAFSV-NH2) [Peptide P59-S-Amide]	less pronounced	less apparent		
GQKGQVGPPGAAVRRAYAAFSVGRRAYAAFSV-OH [Peptide P74C13V]	bell shaped response	less apparent		
